Target: GST-PfPP1c (P. falciparum)

Row | pNPP dephosphorylation activity of recombinant PfPP1c (40 pmol, without GST) pre-incubated 30 min at 37°C with different amounts of PbGEXP15 (4–178); concentration-dependent increase [fold] | pNPP dephosphorylation activity of recombinant PfPP1c (40 pmol, without GST) pre-incubated 30 min at 37°C with different amounts of PbGEXP15 (4–590); concentration-dependent increase [fold] | Substance
1 | 2 |  | 6-His PbGEXP15 (4–178) (domain or fragment)
2 |  | 2 | 6-His PbGEXP15 (4–590) (domain or fragment)

From publication PMC6685639
